Key:
[1] = target: T1, human β2-Glycoprotein I pre-incubated with cardiolipin vesicles (CL-β2gpi), P02749
T1 chain: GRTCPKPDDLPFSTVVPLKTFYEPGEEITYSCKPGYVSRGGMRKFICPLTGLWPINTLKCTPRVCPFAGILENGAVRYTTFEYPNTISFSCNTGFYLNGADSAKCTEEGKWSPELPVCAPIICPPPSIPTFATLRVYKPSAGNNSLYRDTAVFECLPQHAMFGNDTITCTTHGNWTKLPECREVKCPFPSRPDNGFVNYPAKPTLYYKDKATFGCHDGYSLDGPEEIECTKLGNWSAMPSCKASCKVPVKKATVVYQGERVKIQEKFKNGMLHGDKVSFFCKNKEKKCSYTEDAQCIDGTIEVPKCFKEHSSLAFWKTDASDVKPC

[2] = target: T2, Ovalbumin (chicken egg albumin, OVA, Sigma A5503), carefully dissolved, P01012
T2 chain: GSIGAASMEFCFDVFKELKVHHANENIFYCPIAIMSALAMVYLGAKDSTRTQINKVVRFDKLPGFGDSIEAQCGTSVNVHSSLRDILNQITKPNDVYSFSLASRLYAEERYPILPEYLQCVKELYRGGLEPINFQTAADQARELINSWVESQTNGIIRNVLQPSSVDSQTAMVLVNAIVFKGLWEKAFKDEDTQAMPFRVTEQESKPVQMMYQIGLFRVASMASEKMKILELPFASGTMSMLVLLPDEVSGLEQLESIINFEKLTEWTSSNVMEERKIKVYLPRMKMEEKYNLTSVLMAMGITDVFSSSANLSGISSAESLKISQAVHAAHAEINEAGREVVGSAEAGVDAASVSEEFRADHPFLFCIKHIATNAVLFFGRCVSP

[3] = target: T3, recombinant human β2-glycoprotein I (made in insect cells), P02749
T3 chain: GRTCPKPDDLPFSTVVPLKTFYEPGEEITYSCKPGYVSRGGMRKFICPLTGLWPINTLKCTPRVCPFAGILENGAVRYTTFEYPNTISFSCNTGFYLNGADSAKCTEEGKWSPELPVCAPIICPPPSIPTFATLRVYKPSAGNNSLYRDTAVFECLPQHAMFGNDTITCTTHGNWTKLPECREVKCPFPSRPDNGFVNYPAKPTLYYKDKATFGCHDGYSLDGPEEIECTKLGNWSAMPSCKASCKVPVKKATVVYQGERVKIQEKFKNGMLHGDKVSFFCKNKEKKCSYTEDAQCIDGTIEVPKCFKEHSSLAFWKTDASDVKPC

[4] = target: heat/acid-denatured human glucagon (Glucagen, Novo Nordisk), P01275
Chain of heat/acid-denatured human glucagon (Glucagen, Novo Nordisk), P01275 (P01275 53-81): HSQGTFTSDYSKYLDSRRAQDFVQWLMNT

[5] = target: T4, β2-glycoprotein I purified from fresh human plasma, P02749
T4 chain: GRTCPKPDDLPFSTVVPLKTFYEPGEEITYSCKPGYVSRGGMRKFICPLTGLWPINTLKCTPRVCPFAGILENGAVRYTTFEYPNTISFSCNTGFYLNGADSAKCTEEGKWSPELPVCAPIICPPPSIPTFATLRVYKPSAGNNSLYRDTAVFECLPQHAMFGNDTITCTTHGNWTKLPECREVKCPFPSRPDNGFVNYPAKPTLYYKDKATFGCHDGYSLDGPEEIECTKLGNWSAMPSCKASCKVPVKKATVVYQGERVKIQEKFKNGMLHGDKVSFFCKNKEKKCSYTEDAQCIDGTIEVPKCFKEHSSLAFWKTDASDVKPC

[6] = target: Native murine serum albumin (nMSA, #126674, Calbiochem), P07724
Chain of Native murine serum albumin (nMSA, #126674, Calbiochem), P07724 (P07724 25-608): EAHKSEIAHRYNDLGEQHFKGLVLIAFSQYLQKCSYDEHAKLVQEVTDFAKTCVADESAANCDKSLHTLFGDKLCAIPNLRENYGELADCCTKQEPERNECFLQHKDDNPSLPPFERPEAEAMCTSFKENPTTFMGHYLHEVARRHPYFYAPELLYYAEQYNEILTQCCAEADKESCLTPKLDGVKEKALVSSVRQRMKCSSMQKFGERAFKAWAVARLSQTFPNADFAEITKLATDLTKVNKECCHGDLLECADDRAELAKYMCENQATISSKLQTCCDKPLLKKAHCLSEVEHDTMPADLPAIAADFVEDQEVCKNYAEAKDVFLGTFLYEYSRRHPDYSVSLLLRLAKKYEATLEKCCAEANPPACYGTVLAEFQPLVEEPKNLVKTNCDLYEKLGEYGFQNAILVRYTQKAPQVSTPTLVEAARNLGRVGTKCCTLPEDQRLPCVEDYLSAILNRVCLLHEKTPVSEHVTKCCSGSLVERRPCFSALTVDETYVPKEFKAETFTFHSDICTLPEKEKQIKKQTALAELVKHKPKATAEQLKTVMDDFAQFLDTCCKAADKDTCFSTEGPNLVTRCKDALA

[7] = target: T5, Amyloid-like misfolded OVA (DOVA), obtained by cyclic thermal misfolding, P01012
T5 chain: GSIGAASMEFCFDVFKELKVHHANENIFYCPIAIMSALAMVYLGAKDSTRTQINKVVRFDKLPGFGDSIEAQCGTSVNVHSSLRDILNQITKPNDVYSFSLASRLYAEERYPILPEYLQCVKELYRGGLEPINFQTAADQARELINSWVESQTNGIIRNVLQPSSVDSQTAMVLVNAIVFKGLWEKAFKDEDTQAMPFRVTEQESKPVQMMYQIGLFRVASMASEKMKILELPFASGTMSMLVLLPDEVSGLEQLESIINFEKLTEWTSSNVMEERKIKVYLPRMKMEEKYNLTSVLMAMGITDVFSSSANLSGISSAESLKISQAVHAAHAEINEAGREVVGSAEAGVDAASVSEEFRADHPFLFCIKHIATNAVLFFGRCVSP

[8] = target: native human glucagon (freshly dissolved), P01275
[9] = target: T6, mouse non-amyloidogenic IAPP (20-29) core
T6 chain: SNNLGPVLPP

[10] = target: Glycated haemoglobin (Hb-AGE)
[11] = target: T7, amyloid fragment of transthyretin
T7 chain: YTIAALLSPYS

[12] = target: T8, laminin α1-chain (2097-2108) amyloid core peptide
T8 chain: AASIKVAVSADR

[13] = target: albumin (ICN, 160069), P02769
Chain of albumin (ICN, 160069), P02769 (P02769 25-607): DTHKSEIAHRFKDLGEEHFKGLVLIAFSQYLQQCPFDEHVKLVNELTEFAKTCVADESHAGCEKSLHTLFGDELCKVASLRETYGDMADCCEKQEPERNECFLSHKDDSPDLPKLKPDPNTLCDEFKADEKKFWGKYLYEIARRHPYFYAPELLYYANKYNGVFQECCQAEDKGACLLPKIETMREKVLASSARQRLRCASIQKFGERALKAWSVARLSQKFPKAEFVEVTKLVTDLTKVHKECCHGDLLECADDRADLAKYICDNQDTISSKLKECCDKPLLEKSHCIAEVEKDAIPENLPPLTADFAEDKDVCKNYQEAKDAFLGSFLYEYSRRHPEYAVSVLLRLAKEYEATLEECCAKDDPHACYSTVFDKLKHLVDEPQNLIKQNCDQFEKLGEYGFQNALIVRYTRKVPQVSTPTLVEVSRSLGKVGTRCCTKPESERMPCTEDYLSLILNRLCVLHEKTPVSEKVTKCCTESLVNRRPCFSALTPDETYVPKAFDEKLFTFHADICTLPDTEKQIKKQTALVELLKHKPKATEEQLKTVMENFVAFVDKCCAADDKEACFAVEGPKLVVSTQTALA

[14] = target: T9, amyloid fibrin peptide FP13 K157G, P02671
T9 chain: KVQHIQLLQGNVR

[15] = target: recombinant human collagen XVIII fragment endostatin (Entremed, Inc), P39060
Chain of recombinant human collagen XVIII fragment endostatin (Entremed, Inc), P39060 (P39060 whole entry, looked up, the tested form may be a part): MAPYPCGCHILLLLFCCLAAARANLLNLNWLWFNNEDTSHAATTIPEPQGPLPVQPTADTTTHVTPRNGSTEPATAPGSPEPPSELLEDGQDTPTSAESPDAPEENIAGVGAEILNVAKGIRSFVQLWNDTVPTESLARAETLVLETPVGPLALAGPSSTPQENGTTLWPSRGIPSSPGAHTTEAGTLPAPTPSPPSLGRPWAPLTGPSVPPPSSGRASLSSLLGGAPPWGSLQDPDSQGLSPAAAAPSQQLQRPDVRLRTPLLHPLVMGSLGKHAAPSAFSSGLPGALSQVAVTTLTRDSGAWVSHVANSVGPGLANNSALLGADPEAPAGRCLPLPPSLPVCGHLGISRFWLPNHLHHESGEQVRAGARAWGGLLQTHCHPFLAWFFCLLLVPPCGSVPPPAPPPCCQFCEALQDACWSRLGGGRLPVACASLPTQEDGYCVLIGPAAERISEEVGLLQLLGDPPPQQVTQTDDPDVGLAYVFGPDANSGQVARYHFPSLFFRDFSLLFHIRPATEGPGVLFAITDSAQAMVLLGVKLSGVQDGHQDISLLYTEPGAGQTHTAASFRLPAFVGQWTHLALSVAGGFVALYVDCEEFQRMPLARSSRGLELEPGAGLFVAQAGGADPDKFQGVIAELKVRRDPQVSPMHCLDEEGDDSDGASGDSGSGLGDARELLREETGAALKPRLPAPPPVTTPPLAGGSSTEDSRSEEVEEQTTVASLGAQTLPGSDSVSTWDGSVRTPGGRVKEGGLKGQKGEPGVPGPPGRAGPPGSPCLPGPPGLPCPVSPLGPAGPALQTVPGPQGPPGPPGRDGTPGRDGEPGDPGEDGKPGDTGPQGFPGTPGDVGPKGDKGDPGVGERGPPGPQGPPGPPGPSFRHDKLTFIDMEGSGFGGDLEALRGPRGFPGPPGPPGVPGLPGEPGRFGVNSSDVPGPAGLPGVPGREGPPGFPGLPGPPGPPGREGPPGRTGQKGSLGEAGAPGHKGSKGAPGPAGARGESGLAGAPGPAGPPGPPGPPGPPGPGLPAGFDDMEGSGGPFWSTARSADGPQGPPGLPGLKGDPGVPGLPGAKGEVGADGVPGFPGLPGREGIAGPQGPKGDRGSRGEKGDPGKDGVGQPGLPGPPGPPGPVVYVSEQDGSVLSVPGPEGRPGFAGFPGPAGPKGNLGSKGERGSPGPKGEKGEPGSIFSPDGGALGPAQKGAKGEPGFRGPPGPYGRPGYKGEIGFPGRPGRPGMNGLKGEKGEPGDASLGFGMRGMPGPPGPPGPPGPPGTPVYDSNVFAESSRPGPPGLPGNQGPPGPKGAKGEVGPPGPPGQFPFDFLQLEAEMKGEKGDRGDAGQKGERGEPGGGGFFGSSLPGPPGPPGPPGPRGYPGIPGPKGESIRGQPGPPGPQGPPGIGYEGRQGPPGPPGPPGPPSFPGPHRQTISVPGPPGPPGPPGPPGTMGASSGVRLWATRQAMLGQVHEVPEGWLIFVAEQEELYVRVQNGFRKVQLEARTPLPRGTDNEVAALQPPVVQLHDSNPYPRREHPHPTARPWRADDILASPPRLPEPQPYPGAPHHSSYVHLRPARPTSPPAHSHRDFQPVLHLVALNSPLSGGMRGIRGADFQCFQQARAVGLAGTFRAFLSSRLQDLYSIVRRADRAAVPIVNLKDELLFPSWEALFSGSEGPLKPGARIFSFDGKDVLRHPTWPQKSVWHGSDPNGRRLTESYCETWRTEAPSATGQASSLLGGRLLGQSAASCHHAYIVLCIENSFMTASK

[16] = target: T10, non-amyloid fragment FP10 of human fibrin α-chain (148-157)
T10 chain: KRLEVDIDIK

B1: Tissue-type plasminogen activator (tPA, Actilyse, Boehringer-Ingelheim) (protein)
chain: SYQVICRDEKTQMIYQQHQSWLRPVLRSNRVEYCWCNSGRAQCHSVPVKSCSEPRCFNGGTCQQALYFSDFVCQCPEGFAGKCCEIDTRATCYEDQGISYRGTWSTAESGAECTNWNSSALAQKPYSGRRPDAIRLGLGNHNYCRNPDRDSKPWCYVFKAGKYSSEFCSTPACSEGNSDCYFGNGSAYRGTHSLTESGASCLPWNSMILIGKVYTAQNPSAQALGLGKHNYCRNPDGDAKPWCHVLKNRRLTWEYCDVPSCSTCGLRQYSQPQFRIKGGLFADIASHPWQAAIFAKHRRSPGERFLCGGILISSCWILSAAHCFQERFPPHHLTVILGRTYRVVPGEEEQKFEVEKYIVHKEFDDDTYDNDIALLQLKSDSSRCAQESSVVRTVCLPPADLQLPDWTECELSGYGKHEALSPFYSERLKEAHVRLYPSSRCTSQHLLNRTVTDNMLCAGDTRSGGPQANLHDACQGDSGGPLVCLNDGRMTLVGIISWGLGCGQKDVPGVYTKVTNYLDWIRDNMRP
[1]
  chromogenic tPA/plasminogen activation assay with a plasmin substrate: Exposure of human β2gpi to cardiolipin renders the mixture with tPA/plasminogen activating properties
[2]
  tPA/plasminogen activation assay: OVA displays characteristics that are a hallmark for the presence of at least a fraction of the molecules with crossbeta structure, as shown by ... the enhanced activation of tPA and plasminogen
[3]
  tPA-mediated conversion of Plg to plasmin (substrate S-2251): Recombinant β2GPI, but not β2GPI purified from fresh plasma stimulate tPA-mediated conversion of Plg to plasmin
[4]
  Plg-activation assay: In this way, a potent activator of tPA was obtained
[5]
  tPA-mediated conversion of Plg to plasmin (substrate S-2251): Recombinant β2GPI, but not β2GPI purified from fresh plasma stimulate tPA-mediated conversion of Plg to plasmin
[6]
  Plg-activation assay: also native albumin enhanced ThT fluorescence to some extent, but this was not reflected by stimulation of tPA activation
[7]
  tPA/plasminogen activation assay: After cyclic thermal misfolding, however, signals representative for crossbeta structure are far more pronounced with denatured OVA
[8]
  Plg-activation assay: at high glucagon concentration, also native glucagon has some tPA activating potential

B2: human factor XII from plasma (Calbiochem, #233490) (protein)
chain: IPPWEAPKEHKYKAEEHTVVLTVTGEPCHFPFQYHRQLYHKCTHKGRPGPQPWCATTPNFDQDQRWGYCLEPKKVKDHCSKHSPCQKGGTCVNMPSGPHCLCPQHLTGNHCQKEKCFEPQLLRFFHKNEIWYRTEQAAVARCQCKGPDAHCQRLASQACRTNPCLHGGRCLEVEGHRLCHCPVGYTGAFCDVDTKASCYDGRGLSYRGLARTTLSGAPCQPWASEATYRNVTAEQARNWGLGGHAFCRNPDNDIRPWCFVLNRDRLSWEYCDLAQCQTPTQAAPPTPVSPRLHVPLMPAQPAPPKPQPTTRTPPQSQTPGALPAKREQPPSLTRNGPLSCGQRLRKSLSSMTRVVGGLVALRGAHPYIAALYWGHSFCAGSLIAPCWVLTAAHCLQDRPAPEDLTVVLGQERRNHSCEPCQTLAVRSYRLHEAFSPVSYQHDLALLRLQEDADGSCALLSPYVQPVCLPSGAARPSETTLCQVAGWGHQFEGAEEYASFLQEAQVPFLSLERCSAPDVHGSSILPGMLCAGFLEGGTDACQGDSGGPLVCEDQAAERRLTLQGIISWGSGCGDRNKPGVYTDVAYYLAWIREHTVS
[9]
  activation of factor XII, detected by the conversion of Chromozym-PK: non-amyloid controls fibrin fragment FP10 and non-amyloid murine islet amyloid polypeptide mIAPP do not activate factor XII
[10]
  auto-activation of purified factor XII, substrate S-2222: All three amyloid-like aggregates are able to induce factor XII auto-activation. FP13 K157G and Hb-AGE have a potency to induce auto-activation that is similar to the established surface activator DXS500k
[11]
  activation of factor XII, detected by the conversion of Chromozym-PK: cross-β structure conformation rich peptides laminin (LAM12) and transthyretin (TTR11) stimulate factor XII activation, to a similar extent as kaolin
[12]
  activation of factor XII, detected by the conversion of Chromozym-PK: cross-β structure conformation rich peptides laminin (LAM12) and transthyretin (TTR11) stimulate factor XII activation, to a similar extent as kaolin
[13]
  factor XII and subsequent prekallikrein activity (Chromozym-PK): Neither albumin or endostatin alone, nor kaolin or DXS500k alone are efficient activators of factor XII, whereas combinations of adjuvant and protein cofactor results in factor XII and subsequent prekallikrein activity
[14]
  auto-activation of purified factor XII, substrate S-2222: All three amyloid-like aggregates are able to induce factor XII auto-activation. FP13 K157G and Hb-AGE have a potency to induce auto-activation that is similar to the established surface activator DXS500k
[15]
  factor XII and subsequent prekallikrein activity (Chromozym-PK): Neither albumin or endostatin alone, nor kaolin or DXS500k alone are efficient activators of factor XII, whereas combinations of adjuvant and protein cofactor results in factor XII and subsequent prekallikrein activity
[16]
  activation of factor XII, detected by the conversion of Chromozym-PK: non-amyloid controls fibrin fragment FP10 and non-amyloid murine islet amyloid polypeptide mIAPP do not activate factor XII
